Patent US20250074988A1 (SHANGHAI HUAOTA BIOPHARMACEUTICAL, published 2025)
Residue numbers refer to the chain shown, from its start. One block for each binder: values may come before it.

How the values were obtained:
[1] = target: T1, human PD-L1 on CHO-K1-huPD-L1 cells (human, UniProt Q9NZQ7 19-290); test: flow cytometry on CHO-K1-huPD-L1 cells; parent chimeric antibody
T1 construct: whole, on cells; also called cell surface PD-L1; CHO-K1-huPD-L1 cells overexpressing human PD-L1
Method: (§1) CHO-K1-huPD-L1 cells overexpressing human PD-L1 were plated in a 96-well plate at 2×10⁴/well, and the 3-fold serial gradient dilutions of the samples to be tested were added at 20 μl/well, and co-incubated with the cells at room temperature for 30 min. The cells were washed by centrifugation to remove unbound antibodies, and 20 μl of R-Phycoerythrin AffiniPure Goat Anti-Human IgG, Fcγ Fragment Specific (Item No.: 109-115-098, Jackson ImmunoResearch; diluted with 1% (w/v) BSA-PBS at 1:200) fluorescent secondary antibodies were added to each well, and incubated for 15 min. The cells were then washed twice, resuspended in 100 μl of 1% (w/v) BSA-PBS, and detected for their fluorescence intensity at 585 nm by flow cytometry (BD, FACS Cantoll) under 488 nm excitation.

[2] = target: T2, recombinant human PD-L1 protein (Item No. 10084-H08H, Sino Biological) (human, UniProt Q9NZQ7 19-238); test: SPR, humanization screening
T2 construct: Bought protein; also called huPD-L1; human PD-L1 antigen

[3] = target: T3, human PD-L1-moFc recombinant protein (human); test: flow cytometry, blocking of PD-L1-moFc binding to CHO-K1-huPD-1 cells
T3 construct: also called free PD-L1
Method: The antibodies to be tested were diluted with 3-fold gradient, added at 20 μL/well into the 96-well plate with the antigen added, mixed well, and incubated at room temperature for 15 min. CHO-K1-huPD-1 cells overexpressing human PD-1 were added at 2×10⁴/well into the 96-well plate pre-incubated with antigen-antibody, mixed well, and incubated at room temperature for 15 min. The mixture was centrifuged at 300 g for 5 min, the supernatant was removed, and the cells were washed twice with FACS buffer. Anti-moFc-Alexa 488 (Item No.: 115-545-071, Jackson) secondary antibodies were diluted at 1:300, added, mixed well, and incubated at room temperature for 15 min. The cells were washed three times and measured on instrument for the fluorescence intensity on their surfaces.

[4] = target: T2, recombinant human PD-L1 protein (Item …); test: SPR, Biacore 8K, antibody captured as ligand, PD-L1 analyte, 1:1 model
[5] = target: T1, human PD-L1 on CHO-K1-huPD-L1 cells; test: cell-based or functional assay
[6] = target: T2, recombinant human PD-L1 protein (Item …); test: SPR, Biacore 8K, antibody captured on anti-human chip, huPD-L1 analyte, 1:1 model
Method: The Anti-Human Capture-CM5 chips (Item No.: BR-1005-30, GE) were prepared according to the coupling method of the Human Antibody Captrue Kit (Item No.: BR-1008-39, GE) and the amino coupling kit (Item No.: BR-1000-50, GE). The chips were equilibrated at room temperature for 20-30 min and assembled into the Biacore 8K instrument. B5D1 was diluted to the experimental working concentration with the equilibrium buffer. The antigen was diluted to 50 nM with the equilibrium buffer, and then diluted to give samples with 7 concentration gradients by 3× serial dilution, and 2 samples with zero concentration (i.e. the equilibrium buffer) and a duplicate sample with one concentration (typically, a duplicate sample with the minimum concentration) were set. According to the antibody, the antigen huPD-L1 (Item No.: 10084-H08H, Sino Biological), and the regeneration order, the samples with 10 antigen concentrations (2 with zero concentration, 7 with gradient concentrations and 1 with duplicate concentration) were subject to experimental analysis with an antigen injection flow rate of 30 μl/min, the binding time of 120 seconds, and the dissociation time of 600 seconds.

[7] = target: T2, recombinant human PD-L1 protein (Item …); test: ELISA, humanization screening
[8] = target: T1, human PD-L1 on CHO-K1-huPD-L1 cells; test: flow cytometry on CHO-K1-huPD-L1 cells; humanized antibody 900760
Method: as §1

Cynomolgus PD-L1 = Cynomolgus PD-L1 (cynomolgus); test: SPR, Biacore 8K, antibody captured as ligand, PD-L1 analyte, 1:1 model
Rabbit PD-L1 = target: T4, Rabbit PD-L1 (rabbit, UniProt G1SUI3 19-238); test: as above
T4 sequence: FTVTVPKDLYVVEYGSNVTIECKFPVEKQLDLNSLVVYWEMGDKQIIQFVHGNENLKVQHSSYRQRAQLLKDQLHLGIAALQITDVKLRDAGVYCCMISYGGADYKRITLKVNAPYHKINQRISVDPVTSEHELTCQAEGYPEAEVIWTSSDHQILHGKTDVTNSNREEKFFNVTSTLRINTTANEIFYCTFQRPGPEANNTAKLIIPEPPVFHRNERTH

T2 sequence (Q9NZQ7 19-238 limits assumed): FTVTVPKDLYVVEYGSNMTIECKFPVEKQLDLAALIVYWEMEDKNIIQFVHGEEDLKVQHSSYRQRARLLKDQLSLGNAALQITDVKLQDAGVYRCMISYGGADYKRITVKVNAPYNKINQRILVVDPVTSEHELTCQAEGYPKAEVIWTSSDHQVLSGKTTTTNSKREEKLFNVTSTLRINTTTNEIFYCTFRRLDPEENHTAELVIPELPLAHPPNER
T1 sequence (Q9NZQ7 19-290): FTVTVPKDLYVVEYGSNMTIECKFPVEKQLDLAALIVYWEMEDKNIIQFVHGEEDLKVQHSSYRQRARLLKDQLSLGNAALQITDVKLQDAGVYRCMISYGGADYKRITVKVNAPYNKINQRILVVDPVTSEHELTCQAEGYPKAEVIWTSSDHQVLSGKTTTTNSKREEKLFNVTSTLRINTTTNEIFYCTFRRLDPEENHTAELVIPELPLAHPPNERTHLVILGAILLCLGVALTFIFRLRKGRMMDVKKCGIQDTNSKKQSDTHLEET
T3 sequence (chain, as listed by the source limits assumed): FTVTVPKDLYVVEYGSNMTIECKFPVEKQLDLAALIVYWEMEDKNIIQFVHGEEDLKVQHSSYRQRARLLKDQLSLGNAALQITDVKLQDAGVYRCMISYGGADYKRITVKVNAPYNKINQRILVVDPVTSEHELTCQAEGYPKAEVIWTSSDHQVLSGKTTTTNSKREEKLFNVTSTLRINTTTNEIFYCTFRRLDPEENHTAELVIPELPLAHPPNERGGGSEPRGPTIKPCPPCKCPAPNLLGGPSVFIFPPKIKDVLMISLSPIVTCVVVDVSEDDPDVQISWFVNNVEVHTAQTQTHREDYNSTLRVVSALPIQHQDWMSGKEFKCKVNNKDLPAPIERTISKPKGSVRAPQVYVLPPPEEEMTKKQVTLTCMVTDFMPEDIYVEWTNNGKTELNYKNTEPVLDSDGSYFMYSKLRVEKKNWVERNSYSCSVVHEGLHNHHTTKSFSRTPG

B3: 900245Ab-H2L2 (antibody, human IgG1, kappa, L234A L235A, V domains shown)
VH: QIQLVQSGAEVKKPGASVKVSCKASGYTFTDYYINWVRQAPGQRLEWIGWIYLGSGNAKYNEKFKGRATLTVDTSASTAYMELSSLRSEDTAVYYCARCVGTYWYFDVWGQGTTVTVSS
VL: DIQLTQSPSSLSASVGDRVTITCSASSSVSYMHWYQQKPGKAPKPWIYDTSNVQSGFPSRFSGSGSGTDYTLTISSLQPEDFATYYCHQRSSYPWTFGQGTKLEIKR
notes: Humanized; huVH2 + huVL2 on human IgG1 / Ig kappa constants
Kd [2]: 0.816 nM
EC50 [7]: 0.514 µg/mL

B4: 900245Ab-H4L2 (antibody, human IgG1, kappa, L234A L235A, V domains shown)
VH: B3 VH with I2V, A68V, L70I, C99S
VL: B3 VL
notes: Humanized; huVH4 + huVL2 on human IgG1 / Ig kappa constants
Kd [2]: 1.97 nM
EC50 [7]: 1.31 µg/mL

B5: 900245Ab-H1L1 (antibody, human IgG1, kappa, L234A L235A, V domains shown)
VH: B3 VH with V20I, R67K, Y95F
VL: B3 VL with D1Q, I21M, Q54A, S59A, L77M
notes: Humanized
Kd [2]: 0.596 nM
EC50 [7]: 0.361 µg/mL

B6: 900245Ab-H3L3 (antibody, human IgG1, kappa, L234A L235A, V domains shown)
VH: B3 VH with N61S, E62Q, K65Q
VL: B3 VL with P45L, W46L, N52S, V53L, F57V
notes: Humanized; huVH3 + huVL3 on human IgG1 / Ig kappa constants
Kd [2]: 10.4 nM
EC50 [7]: 8.7 µg/mL

B7: 900245Ab-H2L1 (antibody, human IgG1, kappa, L234A L235A, V domains shown)
VH: B3 VH
VL: B3 VL with D1Q, I21M, Q54A, S59A, L77M
notes: Humanized; huVH2 + huVL1 on human IgG1 / Ig kappa constants
Kd [2]: 0.639 nM
EC50 [7]: 0.385 µg/mL

B8: 900245Ab-H3L1 (antibody, human IgG1, kappa, L234A L235A, V domains shown)
VH: B3 VH with N61S, E62Q, K65Q
VL: B3 VL with D1Q, I21M, Q54A, S59A, L77M
notes: Humanized; huVH3 + huVL1 on human IgG1 / Ig kappa constants
Kd [2]: 0.576 nM
EC50 [7]: 0.381 µg/mL

B12: 900245Ab-H4L1 (antibody, human IgG1, kappa, L234A L235A, V domains shown)
VH: B3 VH with I2V, A68V, L70I, C99S
VL: B3 VL with D1Q, I21M, Q54A, S59A, L77M
notes: Humanized; huVH4 + huVL1 on human IgG1 / Ig kappa constants
Kd [2]: 0.726 nM
EC50 [7]: 0.589 µg/mL

B13: 900245Ab-H4L3 (antibody, human IgG1, kappa, L234A L235A, V domains shown)
VH: B3 VH with I2V, A68V, L70I, C99S
VL: B3 VL with P45L, W46L, N52S, V53L, F57V
notes: Humanized; huVH4 + huVL3 on human IgG1 / Ig kappa constants
Kd [2]: 43.7 nM
EC50 [7]: ~1520 µg/mL

B14: 900245Ab-H3L2 (antibody, human IgG1, kappa, L234A L235A, V domains shown)
VH: B3 VH with N61S, E62Q, K65Q
VL: B3 VL
notes: Humanized; huVH3 + huVL2 on human IgG1 / Ig kappa constants
Kd [2]: 0.764 nM
EC50 [7]: 0.787 µg/mL

Results, then the binder that gave them:

EC50 [1]: 0.125 µg/mL
Kd [2]: 0.72 nM
IC50 [3]: 2.84 µg/mL
Kd [4]: 0.346 nM
koff [4]: 0.000127 s⁻¹
kon [4]: 368000 M⁻¹ s⁻¹
EC50, T cell activation (NFAT-luciferase RLU, Jurkat-NFAT-PD-1-5B8 effector cells with CHO-K1-OS8-PD-L1-8D6 target cells) [5]: 0.287 µg/mL
Kd [6]: 0.0773 nM
koff [6]: 9.54e-05 s⁻¹
kon [6]: 1.24e+06 M⁻¹ s⁻¹
EC50 [7]: 0.499 µg/mL
B1: chimeric antibody 900245 (antibody, V domains shown)
VH: QIQLQQSGPELVKPGASVKISCKASGYTFTDYYINWVKQRPGQGLEWIGWIYLGSGNAKYNEKFKGKATLTVDTSSSTAYMHLSSLTSEDSAVYFCARCVGTYWYFDVWGAGTTVTVSS
VL: QILLTQSPATMSASPGEKVTMTCSASSSVSYMHWYQQKPGSSPKPWIYDTSNVASGFPARFSGSGSGTSYSLIISSMEAEDAATYYCHQRSSYPWTFGGGTKLEIK
notes: also called parent chimeric antibody; anti-PD-L1 human-mouse chimeric antibody

EC50 [8]: 0.075 µg/mL
IC50 [3]: 2.27 µg/mL
Kd [4]: 0.459 nM
koff [4]: 0.000158 s⁻¹
kon [4]: 345000 M⁻¹ s⁻¹
Kd (Cynomolgus PD-L1): 0.695 nM
koff (Cynomolgus PD-L1): 0.000138 s⁻¹
kon (Cynomolgus PD-L1): 198000 M⁻¹ s⁻¹
Kd (Rabbit PD-L1): 14 nM
koff (Rabbit PD-L1): 0.00235 s⁻¹
kon (Rabbit PD-L1): 167000 M⁻¹ s⁻¹
EC50, T cell activation (NFAT-luciferase RLU, Jurkat-NFAT-PD-1-5B8 effector cells with CHO-K1-OS8-PD-L1-8D6 target cells) [5]: 0.416 µg/mL
B2: humanized anti-PD-L1 antibody No. 900760 (antibody, V domains shown)
VH: B3 VH with I2V, N61S, E62Q, K65Q, A68V, L70I, C99S
VL: QIQLTQSPSSLSASVGDRVTMTCSASSSVSYMHWYQQKPGKAPKPWIYDTSNVASGFPARFSGSGSGTDYTLTISSMQPEDFATYYCHQRSSYPWTFGQGTKLEIK

Kd [2]: 30.9 nM
EC50 [7]: ~1410 µg/mL
B9: 900245Ab-H5L3 (antibody, human IgG1, kappa, L234A L235A, V domains shown)
VH: B3 VH with I2V, N61S, E62Q, K65Q, A68V, L70I, C99S
VL: B3 VL with P45L, W46L, N52S, V53L, F57V
notes: Humanized; huVH5 + huVL3 on human IgG1 / Ig kappa constants

Kd [2]: 0.645 nM
EC50 [7]: 0.502 µg/mL
B10: 900245Ab-H5L1 (antibody, human IgG1, kappa, L234A L235A, V domains shown)
VH: B3 VH with I2V, N61S, E62Q, K65Q, A68V, L70I, C99S
VL: B3 VL with D1Q, I21M, Q54A, S59A, L77M
notes: Humanized; huVH5 + huVL1 on human IgG1 / Ig kappa constants, screening batch from ExpiCHO-s cells; also called CoAD1445

Kd [2]: 1.67 nM
EC50 [7]: 0.991 µg/mL
B11: 900245Ab-H5L2 (antibody, human IgG1, kappa, L234A L235A, V domains shown)
VH: B3 VH with I2V, N61S, E62Q, K65Q, A68V, L70I, C99S
VL: B3 VL
notes: Humanized; huVH5 + huVL2 on human IgG1 / Ig kappa constants
